Measurements taken from patent US20240261333A1, “NOVEL TARGETS FOR ENHANCING ANTI-TUMOR IMMUNITY” (THE BROAD INSTITUTE, INC., priority 2021, published 2024).

Assays:
ARPC1B (human) = ARPC1B (human) (UniProt O15143); assay: co-IP with IgG control, lysate of C-FLAG B3GNT2 cells, mass spectrometry
CLTC (human) = CLTC (human) (UniProt Q00610); assay: as above
CPSF7 (human) = CPSF7 (human) (UniProt Q8N684); assay: as above
DDX17 (human) = DDX17 (human) (UniProt Q92841); assay: as above
JUP (human) = JUP (human) (UniProt P14923); assay: as above
LUC7L3 (human) = LUC7L3 (human) (UniProt O95232); assay: as above
[1] = molecular target: P0AA25.2 [thioredoxin: P0AA25]; assay: as above
P4HA2 (human) = P4HA2 (human) (UniProt O15460); assay: as above
PLOD1 (human) = PLOD1 (human) (UniProt Q02809); assay: as above
PRRC2C (human) = PRRC2C (human) (UniProt Q9Y520); assay: as above
PSMA3 (human) = PSMA3 (human) (UniProt P25788); assay: as above
RPL6 (human) = RPL6 (human) (UniProt Q02878); assay: as above
RPS20 (human) = RPS20 (human) (UniProt P60866); assay: as above
RPS24 (human) = RPS24 (human) (UniProt P62847); assay: as above
RUVBL2 (human) = RUVBL2 (human) (UniProt Q9Y230); assay: as above
SBSN (human) = SBSN (human) (UniProt Q6UWP8); assay: as above
SRSF6 (human) = SRSF6 (human) (UniProt Q13247); assay: as above
TGM1 (human) = TGM1 (human) (UniProt P22735); assay: as above
TTC13 (human) = TTC13 (human) (UniProt Q8NBP0); assay: as above
CANX (human) = CANX (human) (UniProt P27824); assay: co-IP/MS, anti-FLAG IP of C-FLAG B3GNT2 cell lysate
CAPZB (human) = CAPZB (human) (UniProt P47756); assay: as above
CASP14 (human) = CASP14 (human) (UniProt P31944); assay: as above
CKAP4 (human) = CKAP4 (human) (UniProt Q07065); assay: as above
DNAJA1 (human) = DNAJA1 (human) (UniProt P31689); assay: as above
ERLIN1 (human) = ERLIN1 (human) (UniProt O75477); assay: as above
ERLIN2 (human) = ERLIN2 (human) (UniProt O94905); assay: as above
GCN1 (human) = GCN1 (human) (UniProt Q92616); assay: as above
PRDX1 (human) = PRDX1 (human) (UniProt Q06830); assay: as above
PRDX2 (human) = PRDX2 (human) (UniProt P32119); assay: as above
RCN2 (human) = RCN2 (human) (UniProt Q14257); assay: as above
RPL13A (human) = RPL13A (human) (UniProt P40429); assay: as above
RPL14 (human) = RPL14 (human) (UniProt P50914); assay: as above
RPLPO (human) = RPLPO (human) (UniProt P05388); assay: as above
RPS3A (human) = RPS3A (human) (UniProt P61247); assay: as above
RPS5 (human) = RPS5 (human) (UniProt P46782); assay: as above
SQSTM1 (human) = SQSTM1 (human) (UniProt Q13501); assay: as above
TUBB (human) = TUBB (human) (UniProt P07437); assay: as above
Sequence of TUBB (human) (P07437 whole entry): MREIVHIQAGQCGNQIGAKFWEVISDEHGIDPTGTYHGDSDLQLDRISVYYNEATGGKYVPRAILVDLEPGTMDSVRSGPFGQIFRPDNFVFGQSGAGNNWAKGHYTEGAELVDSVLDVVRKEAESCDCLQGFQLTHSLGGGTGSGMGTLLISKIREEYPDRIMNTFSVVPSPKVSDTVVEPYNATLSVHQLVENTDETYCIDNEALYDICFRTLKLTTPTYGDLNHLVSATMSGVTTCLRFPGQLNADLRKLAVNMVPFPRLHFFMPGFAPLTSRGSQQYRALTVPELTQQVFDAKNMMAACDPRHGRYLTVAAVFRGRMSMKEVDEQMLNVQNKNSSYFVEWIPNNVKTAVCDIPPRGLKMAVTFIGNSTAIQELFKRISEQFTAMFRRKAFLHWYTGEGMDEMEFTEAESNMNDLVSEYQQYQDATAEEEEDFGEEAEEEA

Sequence of RUVBL2 (human) (Q9Y230 2-463 limits assumed): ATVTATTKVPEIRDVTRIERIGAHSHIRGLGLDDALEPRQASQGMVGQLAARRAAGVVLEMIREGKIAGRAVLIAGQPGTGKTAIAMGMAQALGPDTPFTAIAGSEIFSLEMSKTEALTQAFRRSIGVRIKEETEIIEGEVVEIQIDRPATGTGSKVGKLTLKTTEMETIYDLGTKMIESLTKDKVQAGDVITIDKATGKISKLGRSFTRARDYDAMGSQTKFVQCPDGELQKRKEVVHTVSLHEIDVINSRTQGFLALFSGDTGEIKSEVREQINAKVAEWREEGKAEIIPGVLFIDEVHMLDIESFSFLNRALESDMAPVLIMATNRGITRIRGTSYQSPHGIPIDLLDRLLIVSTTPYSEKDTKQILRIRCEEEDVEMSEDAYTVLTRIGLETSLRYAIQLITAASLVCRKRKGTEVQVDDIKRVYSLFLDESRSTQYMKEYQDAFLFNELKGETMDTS
Sequence of RPS24 (human) (P62847 other isoform, or with tags, fused parts or gaps limits assumed): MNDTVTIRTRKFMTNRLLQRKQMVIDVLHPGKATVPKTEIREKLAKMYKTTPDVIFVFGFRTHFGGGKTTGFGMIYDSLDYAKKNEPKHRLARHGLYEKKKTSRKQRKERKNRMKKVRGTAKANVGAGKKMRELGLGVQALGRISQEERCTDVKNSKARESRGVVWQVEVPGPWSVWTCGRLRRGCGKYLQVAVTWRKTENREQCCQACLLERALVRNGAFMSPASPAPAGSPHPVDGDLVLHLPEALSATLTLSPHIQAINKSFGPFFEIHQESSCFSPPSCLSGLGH
Sequence of TGM1 (human) (P22735 whole entry): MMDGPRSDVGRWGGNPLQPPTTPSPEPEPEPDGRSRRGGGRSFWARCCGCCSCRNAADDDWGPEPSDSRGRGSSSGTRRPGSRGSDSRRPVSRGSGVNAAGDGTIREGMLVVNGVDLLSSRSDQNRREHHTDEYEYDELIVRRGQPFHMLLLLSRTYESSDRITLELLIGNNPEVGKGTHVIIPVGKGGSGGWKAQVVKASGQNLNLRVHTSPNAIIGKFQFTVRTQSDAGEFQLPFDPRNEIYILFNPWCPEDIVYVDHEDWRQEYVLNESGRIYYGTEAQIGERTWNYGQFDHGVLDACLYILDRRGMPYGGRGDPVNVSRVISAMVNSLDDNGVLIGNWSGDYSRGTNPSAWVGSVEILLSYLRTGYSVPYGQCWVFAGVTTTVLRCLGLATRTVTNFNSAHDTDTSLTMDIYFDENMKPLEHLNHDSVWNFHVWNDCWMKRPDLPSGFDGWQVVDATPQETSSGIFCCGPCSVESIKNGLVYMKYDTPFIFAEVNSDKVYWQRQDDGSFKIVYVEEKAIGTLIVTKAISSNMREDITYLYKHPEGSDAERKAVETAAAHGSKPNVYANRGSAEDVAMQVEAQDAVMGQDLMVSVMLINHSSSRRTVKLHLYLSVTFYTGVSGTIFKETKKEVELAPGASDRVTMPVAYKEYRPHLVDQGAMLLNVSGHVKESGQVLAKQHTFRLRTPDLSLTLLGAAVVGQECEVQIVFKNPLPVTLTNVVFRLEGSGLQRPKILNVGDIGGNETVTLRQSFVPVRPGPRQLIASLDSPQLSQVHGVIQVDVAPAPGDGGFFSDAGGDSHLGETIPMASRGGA
Sequence of DDX17 (human) (Q92841 whole entry): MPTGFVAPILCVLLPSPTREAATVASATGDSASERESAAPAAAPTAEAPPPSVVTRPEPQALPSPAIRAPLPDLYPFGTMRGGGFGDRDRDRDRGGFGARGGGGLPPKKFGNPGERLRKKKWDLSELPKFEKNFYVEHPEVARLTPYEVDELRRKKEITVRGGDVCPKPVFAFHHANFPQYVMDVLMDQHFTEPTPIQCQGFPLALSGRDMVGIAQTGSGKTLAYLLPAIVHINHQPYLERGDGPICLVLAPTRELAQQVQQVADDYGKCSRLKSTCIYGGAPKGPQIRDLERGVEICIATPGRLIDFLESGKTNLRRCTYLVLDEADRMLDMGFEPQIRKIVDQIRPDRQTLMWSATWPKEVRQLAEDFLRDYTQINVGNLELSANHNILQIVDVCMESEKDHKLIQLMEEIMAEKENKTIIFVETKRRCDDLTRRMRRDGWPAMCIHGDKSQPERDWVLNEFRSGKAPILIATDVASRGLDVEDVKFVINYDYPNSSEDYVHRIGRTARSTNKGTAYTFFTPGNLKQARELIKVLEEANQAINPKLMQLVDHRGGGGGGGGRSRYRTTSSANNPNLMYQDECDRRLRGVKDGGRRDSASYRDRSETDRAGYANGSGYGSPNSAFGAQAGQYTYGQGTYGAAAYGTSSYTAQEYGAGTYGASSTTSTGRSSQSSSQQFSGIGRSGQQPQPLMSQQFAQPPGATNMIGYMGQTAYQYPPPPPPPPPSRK
Sequence of ERLIN2 (human) (O94905 whole entry): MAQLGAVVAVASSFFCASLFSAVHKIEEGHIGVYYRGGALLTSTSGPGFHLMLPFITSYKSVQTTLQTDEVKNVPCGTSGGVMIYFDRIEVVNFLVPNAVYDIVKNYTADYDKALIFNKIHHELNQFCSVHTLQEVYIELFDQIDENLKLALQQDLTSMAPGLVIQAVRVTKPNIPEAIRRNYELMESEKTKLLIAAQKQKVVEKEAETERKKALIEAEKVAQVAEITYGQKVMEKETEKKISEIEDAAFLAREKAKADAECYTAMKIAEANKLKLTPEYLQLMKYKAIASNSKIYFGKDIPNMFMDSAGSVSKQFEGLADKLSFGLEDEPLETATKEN
Sequence of SBSN (human) (Q6UWP8 26-590 limits assumed): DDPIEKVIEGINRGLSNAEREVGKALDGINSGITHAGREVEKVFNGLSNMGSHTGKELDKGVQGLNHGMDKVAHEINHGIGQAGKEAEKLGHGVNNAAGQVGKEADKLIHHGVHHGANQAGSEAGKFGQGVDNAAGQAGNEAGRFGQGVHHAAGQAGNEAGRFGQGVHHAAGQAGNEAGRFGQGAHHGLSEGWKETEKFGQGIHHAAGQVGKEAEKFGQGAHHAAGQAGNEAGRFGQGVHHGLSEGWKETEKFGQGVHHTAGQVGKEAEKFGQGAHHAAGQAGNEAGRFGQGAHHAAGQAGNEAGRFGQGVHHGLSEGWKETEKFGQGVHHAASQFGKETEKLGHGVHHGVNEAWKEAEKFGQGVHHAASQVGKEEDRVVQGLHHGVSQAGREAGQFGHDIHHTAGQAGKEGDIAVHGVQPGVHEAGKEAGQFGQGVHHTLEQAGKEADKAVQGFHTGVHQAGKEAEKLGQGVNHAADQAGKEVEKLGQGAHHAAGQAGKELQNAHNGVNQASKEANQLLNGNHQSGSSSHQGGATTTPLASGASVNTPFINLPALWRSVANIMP
Sequence of CPSF7 (human) (Q8N684 whole entry): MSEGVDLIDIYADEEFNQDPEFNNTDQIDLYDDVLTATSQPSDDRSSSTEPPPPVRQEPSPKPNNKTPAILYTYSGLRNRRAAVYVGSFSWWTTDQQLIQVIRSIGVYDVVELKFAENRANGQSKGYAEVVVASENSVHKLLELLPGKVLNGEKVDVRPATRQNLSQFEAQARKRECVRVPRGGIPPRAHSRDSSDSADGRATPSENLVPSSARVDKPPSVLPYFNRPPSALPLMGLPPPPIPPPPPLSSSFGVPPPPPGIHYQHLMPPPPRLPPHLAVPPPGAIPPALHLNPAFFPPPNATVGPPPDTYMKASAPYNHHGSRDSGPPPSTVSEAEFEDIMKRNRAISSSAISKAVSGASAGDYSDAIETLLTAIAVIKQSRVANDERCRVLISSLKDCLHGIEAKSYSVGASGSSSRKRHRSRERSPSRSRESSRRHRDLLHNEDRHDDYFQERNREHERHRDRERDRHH
Sequence of P4HA2 (human) (O15460 22-535 limits assumed): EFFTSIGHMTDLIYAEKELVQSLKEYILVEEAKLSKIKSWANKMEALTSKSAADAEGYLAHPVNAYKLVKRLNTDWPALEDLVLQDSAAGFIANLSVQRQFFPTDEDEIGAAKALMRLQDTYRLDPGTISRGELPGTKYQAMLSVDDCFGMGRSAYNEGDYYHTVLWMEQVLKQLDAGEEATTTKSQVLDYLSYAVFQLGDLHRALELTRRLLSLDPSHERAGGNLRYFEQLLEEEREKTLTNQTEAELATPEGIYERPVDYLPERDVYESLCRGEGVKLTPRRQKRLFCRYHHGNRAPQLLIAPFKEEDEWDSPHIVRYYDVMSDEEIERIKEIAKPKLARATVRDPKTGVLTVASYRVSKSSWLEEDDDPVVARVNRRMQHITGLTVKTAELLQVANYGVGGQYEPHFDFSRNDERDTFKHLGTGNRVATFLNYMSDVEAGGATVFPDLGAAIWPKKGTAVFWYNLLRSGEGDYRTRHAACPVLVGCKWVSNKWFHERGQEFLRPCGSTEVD
Sequence of SRSF6 (human) (Q13247 whole entry): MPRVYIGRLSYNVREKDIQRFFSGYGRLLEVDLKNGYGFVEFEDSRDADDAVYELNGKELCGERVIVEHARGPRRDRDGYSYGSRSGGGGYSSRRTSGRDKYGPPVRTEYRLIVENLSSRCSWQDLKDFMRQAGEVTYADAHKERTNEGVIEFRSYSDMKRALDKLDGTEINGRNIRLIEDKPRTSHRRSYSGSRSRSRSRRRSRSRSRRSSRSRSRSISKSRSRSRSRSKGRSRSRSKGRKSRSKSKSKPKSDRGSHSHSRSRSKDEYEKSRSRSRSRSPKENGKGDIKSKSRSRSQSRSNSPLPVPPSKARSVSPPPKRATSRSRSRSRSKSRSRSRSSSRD

**Q.** What does the source list for “IgG control (Millipore Sigma 12-371) (antibody)”?
**A.** co-IP/MS count, C-term IgG (ARPC1B (human)): 2; co-IP/MS count, C-term IgG (CLTC (human)): 5; co-IP/MS count, C-term IgG (CPSF7 (human)): 9; co-IP/MS count, C-term IgG (DDX17 (human)): 22; co-IP/MS count, C-term IgG (JUP (human)): 36; co-IP/MS count, C-term IgG (LUC7L3 (human)): 3; co-IP/MS count, C-term IgG [1]: 8; co-IP/MS count, C-term IgG (P4HA2 (human)): 0; co-IP/MS count, C-term IgG (PLOD1 (human)): 0; co-IP/MS count, C-term IgG (PRRC2C (human)): 6; co-IP/MS count, C-term IgG (PSMA3 (human)): 0; co-IP/MS count, C-term IgG (RPL6 (human)): 4; co-IP/MS count, C-term IgG (RPS20 (human)): 5; co-IP/MS count, C-term IgG (RPS24 (human)): 2; co-IP/MS count, C-term IgG (RUVBL2 (human)): 0; co-IP/MS count, C-term IgG (SBSN (human)): 15; co-IP/MS count, C-term IgG (SRSF6 (human)): 5; co-IP/MS count, C-term IgG (TGM1 (human)): 10; co-IP/MS count, C-term IgG (TTC13 (human)): 0

**Q.** For “C-terminal FLAG tagged B3GNT2 (from UniProt Q9NY97 1-397) (enzyme)”, which co-IP mass spectrometry count (CANX (human)) is on record?
**A.** 11

**Q.** What about the co-IP mass spectrometry count (CAPZB (human)) of the same substance?
**A.** 5

**Q.** And the co-IP mass spectrometry count (CASP14 (human))?
**A.** 9

**Q.** And the co-IP mass spectrometry count (CKAP4 (human))?
**A.** 14

**Q.** What about the co-IP mass spectrometry count (DNAJA1 (human)) of the same substance?
**A.** 10

**Q.** And the co-IP mass spectrometry count (ERLIN1 (human))?
**A.** 9

**Q.** What about the co-IP mass spectrometry count (ERLIN2 (human)) of the same substance?
**A.** 9

**Q.** What about the co-IP mass spectrometry count (GCN1 (human)) of the same substance?
**A.** 4

**Q.** What about the co-IP mass spectrometry count (PRDX1 (human)) of the same substance?
**A.** 6

**Q.** What about the co-IP mass spectrometry count (PRDX2 (human)) of the same substance?
**A.** 5

**Q.** And the co-IP mass spectrometry count (RCN2 (human))?
**A.** 16

**Q.** And the co-IP mass spectrometry count (RPL13A (human))?
**A.** 13

**Q.** And the co-IP mass spectrometry count (RPL14 (human))?
**A.** 21

**Q.** And the co-IP mass spectrometry count (RPLPO (human))?
**A.** 10

**Q.** What about the co-IP mass spectrometry count (RPS3A (human)) of the same substance?
**A.** 29

**Q.** What about the co-IP mass spectrometry count (RPS5 (human)) of the same substance?
**A.** 6

**Q.** And the co-IP mass spectrometry count (SQSTM1 (human))?
**A.** 43

**Q.** And the co-IP mass spectrometry count (TUBB (human))?
**A.** 117
